Experimental data taken from article PMC4809600, “The Influence of Chronic Wound Extracts on Inflammatory Cytokine and Histatin Stability” (PLoS ONE, 2016).

What was measured:
[1] = Stability in PBS, capillary zone electrophoresis; assay type: physicochemical; conditions: 1 mg/ml in PBS mixed 1:1 with PBS, 37°C, 96 h, CZE, UV 200 nm, ratio to imidazole internal standard, 0 h = 100%
Description: To determine the stability of the different peptides in CWE, histatins and cytokines were dissolved in PBS at 1 mg/ml. Histatins and cytokines were incubated in a 1:1 ratio with (i) PBS, (ii) CWE in PBS, or (iii) CWE in PBS containing PIC, in a total volume of 25 μl. Imidazole (Sigma-Aldrich) was added as an internal standard, with a final concentration of 100 μg/ml. The mixtures were incubated at 37°C, and samples were taken at 0, 24, 48, 72 and 96 h. For histatins containing mixtures, additional samples were taken after 2, 4, 8 and 16 h of incubation.
The samples were analyzed with a BioFocus 2000 capillary zone electrophoresis system (Bio-Rad Laboratories, Hercules, CA, USA) equipped with an uncoated fused-silica capillary of internal diameter 50 μm and a length of 24 cm. Samples were loaded by pressure injection (5 psi/sec). Separation was performed at 10 kV (cathode at the detector side) at 20°C using 0.1 M phosphate buffer (pH 2.5) as electrolyte and monitored continuously at 200 nm. Peaks were quantified with the BioFocus Integrator software. In order to quantify the percentage of intact peptides remaining after incubation with CWE, the ratios of histatins, rhIL-6 or rhCXCL8 to internal standard was set at 100% at 0h, and the ratios at the other incubation time points were related to this.

[2] = Stability in CWE with protease inhibitor cocktail (PIC), capillary zone electrophoresis; assay type: in vitro ADME, human; conditions: 1 mg/ml in PBS mixed 1:1 with CWE (1 mg/ml protein, pool of 5 donors) in PBS containing PIC (final 1:140 v/v), 37°C, CZE, ratio to imidazole, 0 h = 100%
In short: (§1)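 Peptides or cytokines (1 mg/ml stock) mixed 1:1 with PBS or pooled chronic-wound extract (1 mg/ml protein, three pools of five donors), ±protease inhibitor cocktail, at 37 °C for up to 96 h. Analyzed by capillary zone electrophoresis (pH 2.5 phosphate, 200 nm), with peak ratio to imidazole standard relative to 0 h as % intact.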

[3] = Stability in chronic wound extracts (CWE), capillary zone electrophoresis; assay type: in vitro ADME, human; conditions: 37°C, CZE, 0 h = 100%; for Percentage intact, CWE 24h / Percentage intact, CWE 48h / Percentage intact, CWE 72h / Percentage intact, CWE 96h: 1 mg/ml in PBS mixed 1:1 with CWE (1 mg/ml protein, pool of 5 donors) in PBS, UV 200 nm, ratio to imidazole; for Starting material remaining intact after 96 h in CWE: 1 mg/ml in PBS mixed 1:1 with CWE (1 mg/ml protein, pools of 5 donors), mean of 3 independent experiments
In short: as §1

Substance	Percentage intact, PBS 96h ([1]; experiment 1 of 3)	Percentage intact, PBS 96h ([1]; experiment 2 of 3)	Percentage intact, PBS 96h ([1]; experiment 3 of 3)	Percentage intact, CWE + PIC 24h ([2]; experiment 1 of 3)	Percentage intact, CWE + PIC 24h ([2]; experiment 2 of 3)	Percentage intact, CWE + PIC 24h ([2]; experiment 3 of 3)	Percentage intact, CWE + PIC 48h ([2]; experiment 1 of 3)	Percentage intact, CWE + PIC 48h ([2]; experiment 2 of 3)	Percentage intact, CWE + PIC 48h ([2]; experiment 3 of 3)	Percentage intact, CWE + PIC 72h ([2]; experiment 1 of 3)	Percentage intact, CWE + PIC 72h ([2]; experiment 2 of 3)	Percentage intact, CWE + PIC 72h ([2]; experiment 3 of 3)	Percentage intact, CWE + PIC 96h ([2]; experiment 1 of 3)	Percentage intact, CWE + PIC 96h ([2]; experiment 2 of 3)	Percentage intact, CWE + PIC 96h ([2]; experiment 3 of 3)	Percentage intact, CWE 24h ([3]; experiment 1 of 3)	Percentage intact, CWE 24h ([3]; experiment 2 of 3)	Percentage intact, CWE 24h ([3]; experiment 3 of 3)	Percentage intact, CWE 48h ([3]; experiment 1 of 3)	Percentage intact, CWE 48h ([3]; experiment 2 of 3)	other results
IL-6 BioV: rhIL-6 from Biovision Inc, Cat nr. 4143	98.6817%	79.9235%	96.6267%	100.779%	107.202%	97.2326%	100.572%	97.0586%	95.2476%	93.9962%	96.7281%	94.831%	90.2939%	94.0745%	94.3747%	86.2456%	92.3596%	87.2422%	74.2431%	71.0486%	Percentage intact, CWE 48h ([3]; experiment 3 of 3): 85.9071%; Percentage intact, CWE 72h ([3]; experiment 1 of 3): 64.7766%; Percentage intact, CWE 72h ([3]; experiment 2 of 3): 67.0796%; Percentage intact, CWE 72h ([3]; experiment 3 of 3): 78.8792%; Percentage intact, CWE 96h ([3]; experiment 1 of 3): 48.2486%; Percentage intact, CWE 96h ([3]; experiment 2 of 3): 62.2324%; Percentage intact, CWE 96h ([3]; experiment 3 of 3): 63.6069%; Starting material remaining intact after 96 h in CWE [3]: 58%
IL-6 CS: rhIL-6 from Cell Systems Biotechnology, Cat nr. CS-C1066	91.7071%	94.938%	88.4799%	96.0006%	88.559%	95.4415%	84.6802%	88.7813%	87.103%	88.9677%	86.585%	83.9413%	78.2271%	83.1651%	79.7008%	87.5606%	96.7909%	93.0609%	82.5586%	90.261%	Percentage intact, CWE 48h ([3]; experiment 3 of 3): 82.6368%; Percentage intact, CWE 72h ([3]; experiment 1 of 3): 76.7459%; Percentage intact, CWE 72h ([3]; experiment 2 of 3): 64.558%; Percentage intact, CWE 72h ([3]; experiment 3 of 3): 69.7531%; Percentage intact, CWE 96h ([3]; experiment 1 of 3): 67.9184%; Percentage intact, CWE 96h ([3]; experiment 2 of 3): 56.1934%; Percentage intact, CWE 96h ([3]; experiment 3 of 3): 44.5849%; Starting material remaining intact after 96 h in CWE [3]: 56%
